Molecular target: human Ob-Rb (human) (UniProt P48357)
Test: SPA displacement of [125I] leptin, Cos-7 cells transfected with human Ob-Rb

Chain of UniProt P48357 (P48357 22-1165): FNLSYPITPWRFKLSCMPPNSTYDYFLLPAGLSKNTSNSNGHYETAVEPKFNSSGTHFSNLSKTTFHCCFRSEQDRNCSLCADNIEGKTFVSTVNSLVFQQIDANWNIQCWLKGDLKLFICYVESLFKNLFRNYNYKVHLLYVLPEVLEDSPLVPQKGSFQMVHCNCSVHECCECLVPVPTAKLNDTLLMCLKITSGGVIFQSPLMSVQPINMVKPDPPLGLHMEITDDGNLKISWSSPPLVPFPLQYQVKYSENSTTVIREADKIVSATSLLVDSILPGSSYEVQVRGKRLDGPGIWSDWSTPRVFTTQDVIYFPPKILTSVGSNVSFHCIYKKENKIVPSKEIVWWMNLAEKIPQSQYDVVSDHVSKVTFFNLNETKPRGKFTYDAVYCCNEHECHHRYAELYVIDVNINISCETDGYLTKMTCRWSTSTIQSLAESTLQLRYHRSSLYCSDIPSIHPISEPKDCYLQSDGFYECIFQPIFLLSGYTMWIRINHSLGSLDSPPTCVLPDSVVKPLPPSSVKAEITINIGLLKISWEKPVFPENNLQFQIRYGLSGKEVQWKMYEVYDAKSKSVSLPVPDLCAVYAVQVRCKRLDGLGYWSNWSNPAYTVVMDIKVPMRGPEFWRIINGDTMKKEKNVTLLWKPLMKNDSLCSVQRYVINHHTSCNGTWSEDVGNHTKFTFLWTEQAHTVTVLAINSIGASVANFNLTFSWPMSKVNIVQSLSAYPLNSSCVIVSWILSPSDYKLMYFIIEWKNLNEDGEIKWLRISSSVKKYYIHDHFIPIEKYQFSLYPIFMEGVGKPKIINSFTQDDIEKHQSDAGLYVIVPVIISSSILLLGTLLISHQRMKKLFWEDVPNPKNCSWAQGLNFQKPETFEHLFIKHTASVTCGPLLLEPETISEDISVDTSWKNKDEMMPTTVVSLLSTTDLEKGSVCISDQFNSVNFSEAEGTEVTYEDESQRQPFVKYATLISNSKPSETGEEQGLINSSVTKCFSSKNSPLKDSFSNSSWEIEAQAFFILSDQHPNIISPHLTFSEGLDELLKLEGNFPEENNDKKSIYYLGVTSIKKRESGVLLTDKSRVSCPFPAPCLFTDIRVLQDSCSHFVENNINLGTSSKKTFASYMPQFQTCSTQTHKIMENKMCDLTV

IC50: 10 to 15 nM
Substance: leptin (unlabeled) (ligand)
